Test system: Escherichia coli TOP10
Assay: shrunken log2 fold change of peptide-encoding DNA abundance (4.5 h post-induction vs induction); higher = less antimicrobial activity (less host growth inhibition)
Settings: time post-induction: 4.5 h; library: site-saturation at positions 5, 18, 19, 20
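Further: peptides expressed intracellularly from a pBAD plasmid library in pooled LB shake-flask culture, induced with 0.3% L-arabinose, DNA abundance read by NGS, three biological replicates, DESeq2 with apeglm shrinkage.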

Sequence	shrunken log2 fold change
RRIRLRPPRLPRPRPRPFFWPRP	0.296
RRIRIRPPRLPRPRPRPATGPRP	-0.119
RRIRMRPPRLPRPRPRPHWRPRP	0.0569
RRIRQRPPRLPRPRPRPGIEPRP	-0.113
RRIRWRPPRLPRPRPRPDMFPRP	-0.0661
RRIRHRPPRLPRPRPRPFMIPRP	-0.341
RRIRQRPPRLPRPRPRPLMKPRP	0.158
RRIRWRPPRLPRPRPRPYEPPRP	-0.261
RRIRWRPPRLPRPRPRPSFMPRP	-0.304
RRIRARPPRLPRPRPRPRWIPRP	0.239
RRIRIRPPRLPRPRPRPEMQPRP	0.128
RRIRNRPPRLPRPRPRPKRHPRP	-0.455
RRIRQRPPRLPRPRPRPIFVPRP	-0.217
RRIRERPPRLPRPRPRPWGSPRP	-0.0459
RRIRYRPPRLPRPRPRPMWGPRP	0.171
RRIRRRPPRLPRPRPRPVTSPRP	0.0312
RRIRLRPPRLPRPRPRPVIQPRP	-0.0903
RRIRTRPPRLPRPRPRPWLCPRP	0.0607
RRIRPRPPRLPRPRPRPSLQPRP	0.0128
RRIRFRPPRLPRPRPRPMYRPRP	-0.29
RRIRERPPRLPRPRPRPYAHPRP	-0.0128
RRIRIRPPRLPRPRPRPCEVPRP	0.0421

Sequence	shrunken log2 fold change
RRIRQRPPRLPRPRPRPHLAPRP	-0.0779
RRIRDRPPRLPRPRPRPPDRPRP	0.468
RRIRIRPPRLPRPRPRPGEMPRP	-0.00568
RRIRGRPPRLPRPRPRPAVVPRP	0.488
RRIRIRPPRLPRPRPRPQCTPRP	-0.769
RRIRARPPRLPRPRPRPAIQPRP	0.228
RRIRARPPRLPRPRPRPGPRPRP	1.22
RRIRYRPPRLPRPRPRPWPQPRP	0.0526
RRIRLRPPRLPRPRPRPKYVPRP	-0.126
RRIRFRPPRLPRPRPRPVGVPRP	0.356
RRIRFRPPRLPRPRPRPRQHPRP	0.0181
RRIRQRPPRLPRPRPRPPAAPRP	0.778
RRIRGRPPRLPRPRPRPHLGPRP	0.427
RRIRCRPPRLPRPRPRPHLQPRP	-0.319
RRIRNRPPRLPRPRPRPHSEPRP	-0.438
RRIRTRPPRLPRPRPRPGYGPRP	-0.139
RRIRMRPPRLPRPRPRPHCQPRP	-0.0624
RRIRFRPPRLPRPRPRPMFSPRP	-0.0614
RRIRHRPPRLPRPRPRPHMQPRP	-0.616
RRIRPRPPRLPRPRPRPFENPRP	-0.00884
RRIRCRPPRLPRPRPRPPHNPRP	0.919
RRIRGRPPRLPRPRPRPGPAPRP	1.02

Sequence	shrunken log2 fold change
RRIRRRPPRLPRPRPRPLSRPRP	0.0601
RRIRTRPPRLPRPRPRPKPNPRP	0.186
RRIRARPPRLPRPRPRPGCCPRP	0.841
RRIRDRPPRLPRPRPRPYTGPRP	-1.03
RRIRTRPPRLPRPRPRPDKTPRP	-0.108
RRIRKRPPRLPRPRPRPFAAPRP	0.662
RRIRTRPPRLPRPRPRPQPHPRP	-0.0402
RRIRSRPPRLPRPRPRPACLPRP	0.0251
RRIRGRPPRLPRPRPRPDHLPRP	0.117
RRIRSRPPRLPRPRPRPHVAPRP	-0.136
RRIRRRPPRLPRPRPRPYYAPRP	-0.561
RRIRKRPPRLPRPRPRPGNCPRP	0.0147
RRIRHRPPRLPRPRPRPQKAPRP	-0.0296
RRIRWRPPRLPRPRPRPWNIPRP	-0.0879
RRIRPRPPRLPRPRPRPFKEPRP	-0.54
RRIRKRPPRLPRPRPRPSWLPRP	0.303
RRIRKRPPRLPRPRPRPYFIPRP	-0.515
RRIRMRPPRLPRPRPRPNGFPRP	0.207
RRIRARPPRLPRPRPRPPWKPRP	0.429
RRIRKRPPRLPRPRPRPMVKPRP	0.427
RRIRHRPPRLPRPRPRPLCGPRP	-0.302
RRIRIRPPRLPRPRPRPFGTPRP	-0.109

Sequence	shrunken log2 fold change
RRIRMRPPRLPRPRPRPEHPPRP	0.75
RRIRPRPPRLPRPRPRPHKRPRP	0.0853
RRIRQRPPRLPRPRPRPFYWPRP	-0.418
RRIRQRPPRLPRPRPRPGYFPRP	0.0104
RRIRRRPPRLPRPRPRPKQRPRP	0.288
RRIRMRPPRLPRPRPRPCWEPRP	-0.0572
RRIRGRPPRLPRPRPRPFIKPRP	-0.484
RRIRRRPPRLPRPRPRPQEAPRP	0.0364
RRIRDRPPRLPRPRPRPLRYPRP	0.00765
RRIRLRPPRLPRPRPRPGDCPRP	0.0644
RRIRWRPPRLPRPRPRPRVAPRP	0.699
RRIRHRPPRLPRPRPRPREHPRP	-0.126
RRIRTRPPRLPRPRPRPFEKPRP	-0.0979
RRIRPRPPRLPRPRPRPNYEPRP	-0.442
RRIRERPPRLPRPRPRPRMFPRP	0.00669
RRIRWRPPRLPRPRPRPVFEPRP	0.333
RRIRGRPPRLPRPRPRPFKHPRP	-0.527
RRIRIRPPRLPRPRPRPRQKPRP	-0.028
RRIRCRPPRLPRPRPRPCLWPRP	0.238
RRIRSRPPRLPRPRPRPRMQPRP	0.108
RRIRSRPPRLPRPRPRPSKIPRP	-0.378
RRIRMRPPRLPRPRPRPCSFPRP	0.0622

Sequence	shrunken log2 fold change
RRIRWRPPRLPRPRPRPIGRPRP	-0.0158
RRIRYRPPRLPRPRPRPVQFPRP	-0.00142
RRIRLRPPRLPRPRPRPGSAPRP	0.273
RRIRLRPPRLPRPRPRPIVGPRP	0.0604
RRIRTRPPRLPRPRPRPHEGPRP	-0.00663
RRIRIRPPRLPRPRPRPCGSPRP	-0.0454
RRIRGRPPRLPRPRPRPVLHPRP	-0.0969
RRIRMRPPRLPRPRPRPLCSPRP	-0.0295
RRIRPRPPRLPRPRPRPIQRPRP	0.364
RRIRFRPPRLPRPRPRPELKPRP	-0.0455
RRIRHRPPRLPRPRPRPNPHPRP	-0.35
RRIRGRPPRLPRPRPRPTPMPRP	0.887
RRIRYRPPRLPRPRPRPPGLPRP	0.148
RRIRHRPPRLPRPRPRPHCWPRP	-0.0124
RRIRGRPPRLPRPRPRPANWPRP	0.731
RRIRSRPPRLPRPRPRPQLTPRP	-0.136
RRIRHRPPRLPRPRPRPLGWPRP	0.708
RRIRLRPPRLPRPRPRPTQVPRP	0.452
RRIRLRPPRLPRPRPRPMVNPRP	-0.0358
RRIRHRPPRLPRPRPRPMLPPRP	-0.0141
RRIRIRPPRLPRPRPRPSMNPRP	-0.717
